Test results published in US20070149456A1, “Epithelial sodium channel inhibiting agents and uses therefor” (University of Pittsburgh, priority 2005, published 2007).
Entries after “also recorded” stand apart in the source; their conditions may differ.

Assays:
[1] = target: T1, endogenous ENaC in HAE cells (Homo sapiens, UniProt P37088+P51168+P51170); assay: Amiloride-sensitive short circuit current in primary human airway epithelial (HAE) cell monolayers, Ussing chamber; assay type: cell-based; settings: HAE
T1 construct: endogenous in cells; host or cells: primary human airway (bronchial) epithelial cells from transplant or donor lungs
Excerpt: Primary Cultures of HAE Cells—HAE cells were obtained from excess pathological tissue remaining after lung transplantation or from organ donor lungs deemed not suitable for transplantation under a protocol approved by the University of Pittsburgh […] Review Board. All cells were isolated from second through sixth generation bronchi and grown on permeable Transwell supports (Coming Inc.) as previously described (Devor, D. C., and Pilewski, J. M. (1999), UTP inhibits Na^+ absorption in wild-type and DeltaF508 CFTR-expressing human bronchial epithelia, Am. J. Physiol. 276, C827-C837 31. ).
(§1) Short Circuit Current Measurements—Cell culture inserts were mounted in modified Ussing chambers (Harvard Apparatus, Holliston, Mass.), and the monolayers were continuously short-circuited with a voltage/current clamp system (Physiologic Instruments, San Diego, Calif.). A 2-mV bipolar pulse was applied periodically to measure the resistance of the monolayer. As previously described by Bridges et al. (Bridges, R. J., Newton, B. B., Pilewski, J. M., Devor, D. C., Poll, C. T., and Hall, R. L. (2001), Na+ transport in normal and CF human bronchial epithelial cells is inhibited by BAY 39-9437, Am. J. Physiol. 281, L16-L23 32, Na^+ transport in normal and CF human bronchial epithelial cells is inhibited by BAY 39-9437), the bath solution contained (in mM) 120 NaCl, 25 NaHCO3, 3.3 KH2PO4, 0.8 K2HPO4, 1.2 MgCl2, 1.2 CaCl2, and 10 glucose. The pH of this solution was 7.4 when gassed with a mixture of 95% O2-5% CO2 at 37° C.
Primary cultures of HAE cells grown on permeable membrane supports and mounted in modified Ussing chambers were continuously short-circuited by a voltage clamp amplifier (Physiologic Instruments, San Diego, Calif.). Monolayers were exposed to increasing concentrations of either the γ-peptide (closed circles) or a scrambled peptide (open circles). […] (n=8-9).
Vectors and Cell Culture—Wild-type, C-terminal and double epitope tagged mouse ENaC subunit cDNAs were previously described (Hughey, R. P., Mueller, G. M., Bruns, J. B., Kinlough, C. L., Poland, P. A., Harkleroad, K. L., Carattino, M. D., and Kleyman, T. R. (2003) J Biol Chem 278, 37073-37082 and Ahn, Y. J., Brooker, D. R., Kosari, F., Harte, B. J., Li, J., Mackler, S. A., and Kleyman, T. R. (1999), Cloning and functional expression of the mouse epithelial sodium channel, Am J Physiol 277, F121-129). The γ subunit mutations were generated in pcDNA3.1 (+) using a standard two-step PCR method. A cDNA clone (IMAGE #: 3600399) encoding full length mouse prostasin was obtained from Open Biosystems (Huntsville, Ala.) and sub-cloned into pcDNA3.1 (+) (Invitrogen, Carlsbad, Calif.). MDCK type 1 cells were a gift from Barry M. Gumbiner (Memorial Sloan-Kettering Cancer Center, New York) and were cultured as previously described (Lavelle, J. P., Negrete, H. O., Poland, P. A., Kinlough, C. L., Meyers, S. D., Hughey, R. P., and Zeidel, M. L. (1997), Low permeabilities of MDCK cell monolayers: a model barrier epithelium, Am J Physiol 273, F67-75). CCD (mpkCCDc14) cells were a gift from Alain Vandewalle (Institut National de la Santéet de la Recherche Médicale, Paris, France) and were cultured as previously described (Bens, M., Vallet, V., Cluzeaud, F., Pascual-Letallec, L., Kahn, A., Rafestin-Oblin, M. E., Rossier, B. C., and Vandewalle, A. (1999) J Am Soc Nephrol 10, 923-934). HAE cells were isolated and cultured as described (Devor, D. C., Bridges, R. J., and Pilewski, J. M. (2000), Pharmacological modulation of ion transport across wild-type and DeltaF508 CFTR-expressing human bronchial epithelia, Am J Physiol Cell Physiol 279, C461-479). […]

[2] = target: T2, endogenous ENaC in mpkCCDc14 cells (Mus musculus, UniProt Q61180+Q9WU38+Q9WU39); assay: Amiloride-sensitive short circuit current in mpkCCDc14 monolayers, Ussing chamber; assay type: cell-based; settings: mpkCCDc14, increasing concentrations of peptide
T2 construct: endogenous ENaC in a mouse cortical collecting duct (mpkCCDc14) cell line; endogenous in cells; host or cells: mpkCCDc14 mouse cortical collecting duct cell line
Method: mpkCCDc14 Cell Culture—mpkCCDc14 cells were grown as previously reported (Bens, M., Vallet, V., Cluzeaud, F., Pascual-Letallec, L., Kahn, A., Rafestin-Oblin, M. E., Rossier, B. C., and Vandewalle, A. (1999), Corticosteroid-dependent sodium transport in a novel immortalized mouse collecting duct principal cell line, J. Am. Soc. Nephrol. 10, 923-934). mpkCCDc14 cells were subcultured onto permeable filter supports coated with collagen (0.4-μm pore size, 1-cm^2 surface area, Snapwell filters; Coming Inc., Acton, Mass.). Cells were kept on filters for at least 4 days in defined medium (Bens, M., Vallet, V., Cluzeaud, F., Pascual-Letallec, L., Kahn, A., Rafestin-Oblin, M. E., Rossier, B. C., and Vandewalle, A. (1999) J. Am. Soc. Nephrol. 10, 923-934 30) that was changed every second day. At least 24 h prior to the experiments, the culture medium was replaced with a minimal medium (without drugs or hormones) that contained only Dulbecco's modified Eagle's medium and Ham's F-12.
as §1
(FIG. 6A) mpkCCDc14cells cultured on permeable membrane supports and mounted in a modified Ussing chamber were continuously short-circuited by a voltage clamp amplifier (Physiologic Instruments, San Diego, Calif.). Transepithelial resistance was monitored by applying a 4 mV bipolar pulse every 60 seconds. Where indicated, a 43 residue peptide corresponding to E144-K186 of mouse γ-ENaC (γ-peptide) was added to the apical chamber at a final concentration of 3 μM. […] Data presented as mean +/−standard error (n=8).
Vectors and Cell Culture—Wild-type, C-terminal and double epitope tagged mouse ENaC subunit cDNAs were previously described (Hughey, R. P., Mueller, G. M., Bruns, J. B., Kinlough, C. L., Poland, P. A., Harkleroad, K. L., Carattino, M. D., and Kleyman, T. R. (2003) J Biol Chem 278, 37073-37082 and Ahn, Y. J., Brooker, D. R., Kosari, F., Harte, B. J., Li, J., Mackler, S. A., and Kleyman, T. R. (1999), Cloning and functional expression of the mouse epithelial sodium channel, Am J Physiol 277, F121-129). The γ subunit mutations were generated in pcDNA3.1 (+) using a standard two-step PCR method. A cDNA clone (IMAGE #: 3600399) encoding full length mouse prostasin was obtained from Open Biosystems (Huntsville, Ala.) and sub-cloned into pcDNA3.1 (+) (Invitrogen, Carlsbad, Calif.). MDCK type 1 cells were a gift from Barry M. Gumbiner (Memorial Sloan-Kettering Cancer Center, New York) and were cultured as previously described (Lavelle, J. P., Negrete, H. O., Poland, P. A., Kinlough, C. L., Meyers, S. D., Hughey, R. P., and Zeidel, M. L. (1997), Low permeabilities of MDCK cell monolayers: a model barrier epithelium, Am J Physiol 273, F67-75). CCD (mpkCCDc14) cells were a gift from Alain Vandewalle (Institut National de la Santéet de la Recherche Médicale, Paris, France) and were cultured as previously described (Bens, M., Vallet, V., Cluzeaud, F., Pascual-Letallec, L., Kahn, A., Rafestin-Oblin, M. E., Rossier, B. C., and Vandewalle, A. (1999) J Am Soc Nephrol 10, 923-934).

[3] = target: T2, endogenous ENaC in mpkCCDc14 cells; assay: as above; assay type: cell-based; settings: peptide 50 μM
[4] = target: wild-type αβγ mouse epithelial sodium channel (ENaC) expressed in Xenopus oocytes (mouse, UniProt Q9WU38 1-638); assay: cell-based or functional assay
[5] = target: endogenous ENaC in primary cultures of human airway epithelial (HAE) cells (human, UniProt P51168 1-640); assay: cell-based or functional assay
[6] = target: endogenous ENaC in the mouse cortical collecting duct cell line mpkCCDc14 (mouse, UniProt Q9WU38 1-638); assay: cell-based or functional assay

T1 sequence (P37088 1-178): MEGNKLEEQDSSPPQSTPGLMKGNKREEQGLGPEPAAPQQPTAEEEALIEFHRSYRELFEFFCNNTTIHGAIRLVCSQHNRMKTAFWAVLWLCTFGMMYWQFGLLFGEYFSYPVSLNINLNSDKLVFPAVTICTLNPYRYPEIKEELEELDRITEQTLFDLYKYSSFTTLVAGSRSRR
T1 sequence (P37088 205-669): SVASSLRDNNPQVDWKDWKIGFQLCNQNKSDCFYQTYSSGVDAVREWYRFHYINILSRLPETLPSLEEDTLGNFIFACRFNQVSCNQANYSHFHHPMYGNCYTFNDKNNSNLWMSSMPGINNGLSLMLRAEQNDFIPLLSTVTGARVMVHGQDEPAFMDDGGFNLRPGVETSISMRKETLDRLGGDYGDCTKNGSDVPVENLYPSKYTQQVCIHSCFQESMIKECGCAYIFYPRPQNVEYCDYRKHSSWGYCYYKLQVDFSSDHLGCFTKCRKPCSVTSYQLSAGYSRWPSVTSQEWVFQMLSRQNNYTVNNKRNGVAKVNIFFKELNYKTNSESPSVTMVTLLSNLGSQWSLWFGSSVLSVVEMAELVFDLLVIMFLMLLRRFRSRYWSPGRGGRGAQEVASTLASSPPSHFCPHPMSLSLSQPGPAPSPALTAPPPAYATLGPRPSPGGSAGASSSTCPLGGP
T1 sequence (P51168 whole entry): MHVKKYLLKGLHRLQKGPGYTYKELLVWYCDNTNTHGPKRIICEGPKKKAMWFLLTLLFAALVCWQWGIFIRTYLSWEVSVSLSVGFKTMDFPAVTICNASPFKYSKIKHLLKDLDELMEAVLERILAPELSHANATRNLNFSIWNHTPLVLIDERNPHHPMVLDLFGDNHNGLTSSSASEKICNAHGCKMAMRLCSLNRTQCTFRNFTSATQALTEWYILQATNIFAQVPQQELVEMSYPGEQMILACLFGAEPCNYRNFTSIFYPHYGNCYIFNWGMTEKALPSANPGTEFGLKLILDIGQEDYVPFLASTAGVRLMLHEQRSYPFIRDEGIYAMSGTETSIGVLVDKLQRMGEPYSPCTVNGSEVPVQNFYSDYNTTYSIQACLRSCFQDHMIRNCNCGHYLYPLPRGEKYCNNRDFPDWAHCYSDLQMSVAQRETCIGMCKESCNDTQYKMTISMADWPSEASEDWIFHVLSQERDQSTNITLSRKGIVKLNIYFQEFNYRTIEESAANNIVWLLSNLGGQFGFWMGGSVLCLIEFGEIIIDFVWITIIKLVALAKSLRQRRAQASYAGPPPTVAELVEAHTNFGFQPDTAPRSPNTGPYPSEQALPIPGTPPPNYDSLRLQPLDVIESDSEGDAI
T1 sequence (P51170 1-138): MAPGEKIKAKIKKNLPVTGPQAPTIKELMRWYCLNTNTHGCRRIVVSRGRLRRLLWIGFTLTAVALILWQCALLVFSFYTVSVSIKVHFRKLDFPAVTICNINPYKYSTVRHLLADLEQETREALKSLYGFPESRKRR
T1 sequence (P51170 182-649): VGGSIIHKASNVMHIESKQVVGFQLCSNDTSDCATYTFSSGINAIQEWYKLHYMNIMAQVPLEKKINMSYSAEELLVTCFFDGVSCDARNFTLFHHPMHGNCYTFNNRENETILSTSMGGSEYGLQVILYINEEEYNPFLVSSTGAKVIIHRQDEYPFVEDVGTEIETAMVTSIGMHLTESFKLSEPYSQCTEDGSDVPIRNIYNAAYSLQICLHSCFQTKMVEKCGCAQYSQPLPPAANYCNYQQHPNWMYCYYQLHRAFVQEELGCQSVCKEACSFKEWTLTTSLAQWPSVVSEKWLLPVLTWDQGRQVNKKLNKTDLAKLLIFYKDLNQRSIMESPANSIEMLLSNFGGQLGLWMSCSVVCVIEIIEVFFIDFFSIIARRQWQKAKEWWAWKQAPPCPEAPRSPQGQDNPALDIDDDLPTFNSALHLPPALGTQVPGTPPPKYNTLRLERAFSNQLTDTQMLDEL
Sequence of endogenous ENaC in primary cultures of human airway epithelial (HAE) cells (chain, as listed by the source, chain 1 of 3): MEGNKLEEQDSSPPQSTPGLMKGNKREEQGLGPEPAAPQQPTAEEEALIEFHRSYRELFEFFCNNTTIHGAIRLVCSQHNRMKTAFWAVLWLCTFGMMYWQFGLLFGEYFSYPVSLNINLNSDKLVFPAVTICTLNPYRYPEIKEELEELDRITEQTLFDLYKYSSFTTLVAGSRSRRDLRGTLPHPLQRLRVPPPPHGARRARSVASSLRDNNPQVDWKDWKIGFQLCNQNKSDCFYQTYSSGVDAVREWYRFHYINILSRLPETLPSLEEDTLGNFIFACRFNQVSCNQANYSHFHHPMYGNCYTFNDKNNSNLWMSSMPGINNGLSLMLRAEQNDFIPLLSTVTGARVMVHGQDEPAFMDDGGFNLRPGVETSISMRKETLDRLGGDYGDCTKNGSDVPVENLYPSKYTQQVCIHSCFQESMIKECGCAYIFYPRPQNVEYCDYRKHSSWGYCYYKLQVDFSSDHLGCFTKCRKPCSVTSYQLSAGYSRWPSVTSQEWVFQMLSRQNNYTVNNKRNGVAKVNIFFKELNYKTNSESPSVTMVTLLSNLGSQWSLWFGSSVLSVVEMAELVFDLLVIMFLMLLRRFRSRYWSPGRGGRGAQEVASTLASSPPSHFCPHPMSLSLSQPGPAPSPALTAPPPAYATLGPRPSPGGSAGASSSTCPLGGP
Sequence of endogenous ENaC in primary cultures of human airway epithelial (HAE) cells (P51168 whole entry, chain 2 of 3): as the sequence (P51168 whole entry) above
Sequence of endogenous ENaC in primary cultures of human airway epithelial (HAE) cells (chain, as listed by the source, chain 3 of 3): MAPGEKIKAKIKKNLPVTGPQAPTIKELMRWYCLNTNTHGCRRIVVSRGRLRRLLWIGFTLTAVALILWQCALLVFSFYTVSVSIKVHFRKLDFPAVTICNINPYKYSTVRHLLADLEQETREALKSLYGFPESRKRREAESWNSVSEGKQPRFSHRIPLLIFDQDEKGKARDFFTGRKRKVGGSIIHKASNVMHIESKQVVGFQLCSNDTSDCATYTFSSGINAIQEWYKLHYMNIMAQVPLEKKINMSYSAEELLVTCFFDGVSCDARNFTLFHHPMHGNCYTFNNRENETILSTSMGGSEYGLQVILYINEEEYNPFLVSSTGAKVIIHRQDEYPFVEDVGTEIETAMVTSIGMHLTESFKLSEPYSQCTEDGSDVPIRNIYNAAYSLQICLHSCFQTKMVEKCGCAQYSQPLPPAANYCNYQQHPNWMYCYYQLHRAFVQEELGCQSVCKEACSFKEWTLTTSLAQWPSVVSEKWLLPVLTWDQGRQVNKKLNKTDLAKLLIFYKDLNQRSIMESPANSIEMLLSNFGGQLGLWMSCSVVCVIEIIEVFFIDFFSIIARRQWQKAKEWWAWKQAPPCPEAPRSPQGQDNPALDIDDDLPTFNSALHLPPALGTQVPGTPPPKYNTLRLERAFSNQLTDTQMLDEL

Molecule: FKGFVGKEALREILTFWLRFNNTEMDSKPLRTRANPPSKGGRE (Ac-FKGFVGKEALREILTFWLRFNNTEMDSKPLRTRANPPSKGGRE-NH2) [scrambled peptide, reference compound]
- inhibition of amiloride sensitive short circuit currents ([1]; increasing concentrations of peptide): minimal effect; also recorded: failed to inhibit; also recorded: only a slight inhibition
- inhibition of amiloride sensitive short circuit currents [2]: minimal effect; also recorded: failed to inhibit

Molecule: PLTQPRPRLADHNPLSARRRPLPAGP (Ac-PLTQPRPRLADHNPLSARRRPLPAGP-NH2) [SCR, reference compound]
- inhibition of Isc [3]: did not inhibit
- inhibition of Isc ([1]; peptide 50 μM): did not inhibit

Molecule: LPHPLQRL [8-residue fragment LPHPLQRL of α-26]
- IC50, inhibition of mouse ENaCs expressed in oocytes [4]: ~1000 nM

Molecule: Ac-DLRGALPHPLQRLRTPPPPNPARSAR-NH2
- IC50, inhibition of amiloride-sensitive short circuit current (Isc) in HAE monolayers (FIG. 5A) [5]: 46000 nM
- IC50, inhibition of amiloride-sensitive short circuit current (Isc) in mpkCCDc14 monolayers (FIG. 5B) [6]: 100000 nM
- IC50, inhibition of amiloride-sensitive whole cell Na+ current in oocytes, holding potential -20 mV [4]: 2900 nM
- IC50, inhibition of amiloride-sensitive whole cell Na+ current in oocytes, holding potential -100 mV [4]: 2900 nM
- IC50, inhibition of amiloride-sensitive whole cell Na+ current, two-electrode voltage clamp in Xenopus oocytes (FIG. 3A; holding potential -60 mV, value repeated in the same paragraph) [4]: 2800 nM

Molecule: Ac-EAGSMRSTWEGTPPRFLNLIPLLVFNENEKGKARDFFTGRKRK-NH2 [γ-43, synthetic 43-residue peptide corresponding to the tract Glu144-Lys186 of mouse γ ENaC]
- IC50, inhibition of amiloride sensitive short circuit currents in primary HAE cells (FIG. 7) [5]: 1900 nM
- IC50, inhibition of short circuit currents in primary cultures of HAE cells (FIG. 18C) [5]: 2000 nM
- IC50, inhibition of amiloride sensitive short circuit currents in mpkCCDc14 cells (FIG. 6B) [6]: 3200 nM
- IC50, inhibition of short circuit currents in mouse CCD cells (FIG. 18B) [6]: 3200 nM
